According to article PMC4814140:

Molecular target: Arabidopsis thaliana aquaporin AtTIP2;1 (Arabidopsis thaliana) (UniProt Q41951)
Assay: crystal structure; AtTIP2;1 solubilised by n-octyl-β-D-glucoside, hanging drop vapor diffusion at room temperature, 50 mM magnesium/sodium acetate pH 5.0, 28% (v/v) PEG 400; space group I 4, 1.18 Å, partial twinning

Q: With “Arabidopsis thaliana aquaporin AtTIP2;1 (from UniProt Q41951 2-250) (natural protein)” as the substance, how does the stoichiometry N read?
A: Its stoichiometry N is 4.
